Measurements reported in patent publication US20230212587A1, “Mutant Hydroxyphenylpyruvate Dioxygenase Polypeptide, Encoding Gene Thereof and Use Therefor” (Beijing Dabeinong Biotechnology Co., Ltd., priority 2019, published 2023).
Positions count from the first letter of the chain named. Names may count otherwise.

B1: N2HPPD-02: native Sphingobium sp. N2 HPPD, SEQ ID NO: 153 (protein)
chain: MTLFDNPLGLDGFEFVEFSAPAKGMLEPVFAAMGFVMIARHRSKDVQLWRQGGINLIANYEPRSPAAYFAAEHGPSACGMGWRVRNAAKAYELAVERGAEPVDVKTGPMELRLPAIRGIGGSIIYLIDRYEDEDGGLSIYDIDFVYEPGVDRHPEGAGFKIIDHLTHNVYGGRMAHWASFYERVFGFREIRYFDIKGEYTGLTSKAMTAPDGKIRIPLNEEGKAGGGQIEEFLRAYNGEGIQHIAFLCDDLIAAWDKLKALGTPLMTAPPATYYEMLDERLPGHGEPVAELQKRGILLDGSTQQGDPRLLLQIFGQATIGPVFFEFIQRKKDEGFGEGNFTALFESMERDQLRRGTLNAGESA
modifications: N2HPPD Amino Acid Sequence (Sphingobacterium)
B2: N2HPPDm-F372A-02: Sphingobium sp. N2 HPPD mutant F372A, SEQ ID NO: 156 (protein)
chain: B1 chain with F314A
modifications: N2HPPDm-F372A Amino Acid Sequence
B3: N1HPPDm-F372A-02: Sphingobium sp. N1 HPPD mutant F372A, SEQ ID NO: 150 (protein)
chain: MAADSENPLGLHGFAFAEFTSPDPAAMARQFEQLGFVPAARRKDRGLTLYRQGRIAFILNAGEGEQASAFRAAHGPSANGMAFNVADAKAAHRHAIQSGATDADTAQSALPGTYAIEGIGDSLLYLVDSDPFADWDEVPGWREASAERGVGLDLLDHLTHNVRRGQMRVWSEFYATLFGFEEQKFFDIKGQATGLFSQAMIAPDHEIRIPLNESQDDNSQIEEFIREYNGEGIQHLALTTPDIYSTVEKLRANGVRLQDTIDTYYDLVDERVPGHGEDLARLRKNRILIDGDVHDEGLLLQIATETMFGPIFFEIIQRKGNEGFGNGNFQVLYESIELDQIRRGVVTVDA
modifications: N1HPPDm-F372A Amino Acid Sequence
B4: N3HPPD-02: native Burkholderia sp. N3 HPPD, SEQ ID NO: 159 (protein)
chain: MQIPNWENPVGTDGFEFIEYTAPDPKALGQLFERMGFTAIARHRHKDVTVYRQGDINFIINAEPHSFAQRFARLHGPSICAIAFRVQDAAKAYQHALELGAWGFDNKTGPMELNIPAIKGIGDSLIYFVDRWRGKNGAQPGAIGDISIYDVDFEPIAGANPNPAGHGLTYIDHLTHNVHRGRMQEWAEFYERLFNFREVRYFDIEGKVTGVKSKAMTSPCGKIRIPINEEGSDTAGQIQEYLDAYHGEGIQHIALGTNDIYGAVDGLRGKEVKLLDTIDTYYELVDRRVPDHGESLDELKKRKILIDGARDDLLLQIFTENQIGPIFFEIIQRKGNQGFGEGNFKALFESIELDQIRRGVVQDKA
modifications: N3HPPD Amino Acid Sequence (Burkholderia)
B5: N3HPPDm-F372A-02: Burkholderia sp. N3 HPPD mutant F372A, SEQ ID NO: 162 (protein)
chain: B4 chain with F318A
modifications: N3HPPDm-F372A Amino Acid Sequence
B6: N4HPPD-02: native Burkholderia sp. N4 HPPD, SEQ ID NO: 165 (protein)
chain: B4 chain with H65D, N160T, N258S, N343T
modifications: N4HPPD Amino Acid Sequence (Burkholderia)
B7: TaHPPD-02: native Triticum aestivum HPPD, SEQ ID NO: 39 (protein, listed as Triticum aestivum)
chain: MPPTPTTPAATGAGAAAAVTPEHARPRRMVRFNPRSDRFHTLSFHHVEFWCADAASAAGRFAFALGAPLAARSDLSTGNSVHASQLLRSGNLAFLFTAPYANGCDAATASLPSFSADAARRFSADHGLAVRSIALRVADAAEAFRASVDGGARPAFSPVDLGRGFGFAEVELYGDVVLRFVSHPDGTDVPFLPGFEGVSNPGAVDYGLTRFDHVVGNVPELASAAAYVAGFTGFHEFAEFTTEDVGTAESGLNSMVLANNSEGVLLPLNEPVHGTKRRSQIQTFLEHHGGPGVQHIAVASSDVLRTLREMRARSAMGGFDFLPPPLPKYYEGVRRIAGDVLSEAQIKECQELGVLVDRDDQGVLLQIFTKPVGDRPTLFLEMIQRIGCMEKDERGEEYQKGGCGGFGKGNFSELFKSIEDYEKSLEAKQSAAVQGS
modifications: TaHPPD Amino Acid Sequence

Test system: Arabidopsis thaliana T1 plants
Experiment: Topramezone tolerance of transgenic Arabidopsis thaliana T1 plants (pesticide damage grade by bleached leaf area, score, resistance evaluation)
Type: in vivo
Conditions: HPPDs from different species, 7 DAT; for Classification and statistics of pesticide damage grade Grade 0 / Classification and statistics of pesticide damage grade Grade 1 / Classification and statistics of pesticide damage grade Grade 2 / Classification and statistics of pesticide damage grade Grade 3: number of plants (of 16) in this grade; for Scores: score for pesticide damage 0-100
How it was run: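 Herbicide tolerance was judged per plant on a bleaching scale (grade 0 no bleaching to grade 3 fully bleached) 7 DAT. Topramezone doses were 0, 25, 50 and 100 g ai/ha on 18-day-old T1 and wild-type plants.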

Molecule | Classification and statistics of pesticide damage grade Grade 0 (topramezone 25 g ai/ha (1x)) | Classification and statistics of pesticide damage grade Grade 1 (topramezone 25 g ai/ha (1x)) | Classification and statistics of pesticide damage grade Grade 2 (topramezone 25 g ai/ha (1x)) | Classification and statistics of pesticide damage grade Grade 3 (topramezone 25 g ai/ha (1x)) | Classification and statistics of pesticide damage grade Grade 0 (topramezone 100 g ai/ha (4x)) | Classification and statistics of pesticide damage grade Grade 1 (topramezone 100 g ai/ha (4x)) | Classification and statistics of pesticide damage grade Grade 2 (topramezone 100 g ai/ha (4x)) | Classification and statistics of pesticide damage grade Grade 3 (topramezone 100 g ai/ha (4x)) | Scores (topramezone 25 g ai/ha (1x)) | Scores (topramezone 100 g ai/ha (4x)) | Resistance evaluation (topramezone 25 g ai/ha (1x)) | Resistance evaluation (topramezone 100 g ai/ha (4x))
B1 | 0 | 1 | 15 | 0 | 0 | 0 | 0 | 16 | 65 | 100 | poorly resistant (poorly resistant plants (scores 34-67)) | non-resistant (non-resistant plants (scores 68-100))
B2 | 16 | 0 | 0 | 0 | 16 | 0 | 0 | 0 | 0 | 0 | highly resistant (highly resistant plants (scores 0-15)) | highly resistant (highly resistant plants (scores 0-15))
B3 | 16 | 0 | 0 | 0 | 16 | 0 | 0 | 0 | 0 | 0 | highly resistant (highly resistant plants (scores 0-15)) | highly resistant (highly resistant plants (scores 0-15))
B4 | 0 | 6 | 8 | 2 | 0 | 0 | 0 | 16 | 58 | 100 | poorly resistant (poorly resistant plants (scores 34-67)) | non-resistant (non-resistant plants (scores 68-100))
B5 | 16 | 0 | 0 | 0 | 12 | 4 | 0 | 0 | 0 | 8 | highly resistant (highly resistant plants (scores 0-15)) | highly resistant (highly resistant plants (scores 0-15))
B6 | 5 | 6 | 5 | 0 | 0 | 8 | 2 | 6 | 33 | 63 | moderately resistant (moderately resistant plants (scores 16-33)) | poorly resistant (poorly resistant plants (scores 34-67))
B7 | 0 | 0 | 0 | 16 | 0 | 0 | 0 | 16 | 100 | 100 | non-resistant (non-resistant plants (scores 68-100)) | non-resistant (non-resistant plants (scores 68-100))
